“Also recorded” adds a separate entry of the source. d = 2'-deoxy (DNA)
B1: alkaline phosphatase (protein, UniProt P05187 23-506, looked up)
Alkaline phosphatase, …: IIPVEEENPDFWNREAAEALGAAKKLQPAQTAAKNLIIFLGDGMGVSTVTAARILKGQKKDKLGPEIPLAMDRFPYVALSKTYNVDKHVPDSGATATAYLCGVKGNFQTIGLSAAARFNQCNTTRGNEVISVMNRAKKAGKSVGVVTTTRVQHASPAGTYAHTVNRNWYSDADVPASARQEGCQDIATQLISNMDIDVILGGGRKYMFRMGTPDPEYPDDYSQGGTRLDGKNLVQEWLAKRQGARYVWNRTELMQASLDPSVTHLMGLFEPGDMKYEIHRDSTLDPSLMEMTEAALRLLSRNPRGFFLFVEGGRIDHGHHESRAYRALTETIMFDDAIERAGQLTSEEDTLSLVTADHSHVFSFGGYPLRGSSIFGLAPGKARDRKAYTVLLYGNGPGYVLKDGARPDVTESESGSPEYRQQSAVPLDEETHAGEDVAVFARGPQAHLVHGVQEQTFIAHVMAFAACLEPYTACDLAPPAGTTD
notes: purified recombinant alkaline phosphatase, control for AP fusion proteins
B2: AP-Am-Nogo-B: purified alkaline phosphatase (AP) fusion protein with residues 1-200 at the amino terminus of Nogo-B (protein)
chain: MEDLDQSPLVSSSDSPPRPQPAFKYQFVREPEDEEEEEEEEEEDEDEDLEELEVLERKPAAGLSAAPVPTAPAAGAPLMDFGNDFVPPAPRGPLPAAPPVAPERQPSWDPSPVSSTVPAPSPLSAAAVSPSKLPEDDEPPARPPPPPPASVSPQAEPVWTPPAPAPAAPPSTPAAPKRRGSSGSVVVDLLYWRDIKKTGV
modifications: left off: small tags and cut ends; large carriers
notes: purified alkaline phosphatase (AP) fusion protein with residues 1-200 at the amino terminus of Nogo-B

Experiments:
NgBR mRNA = NgBR mRNA by quantitative PCR after siRNA transfection of HUVEC; type: cell-based, human; settings: 72 hours after transfection, normalized to 18S
Method: (§1) NgBR siRNA oligonucleotides (SEQ ID NOS:2-5) with 3′ dTdT overhangs were synthesized by Qiagen. Control siRNA in experiments refers to a nonsilencing (NS) siRNA (NS forward: UUCUCCGAACGUGUCACGU, SEQ ID NO:7; NS reverse: ACGUGACACGUUCGGAGAA, SEQ ID NO:8) designed and synthesized by Qiagen. HUVEC and CHO stable cell lines were transfected with siRNA by using Oligofectamine. Quantification of NgBR mRNA and protein, ligand binding assay, and migration assay were performed at 72 hours after transfection.
Total RNA from cells was isolated by using the RNeasy kit (Qiagen). Reverse transcription was then performed by using 100 ng of RNA and the Superscript First-Strand Synthesis System kit (Invitrogen). Real-time PCR analysis was done with the iCycler iQ detection system using the iQ SYBR green Supermix kit (Bio-Rad). The NgBR mRNA level was normalized by housekeeping gene 18S. The following primers were used for NgBR: forward, 5′-[…]-3′ (SEQ ID NO:9) and reverse, 5′-[…]-3′ (SEQ ID NO:10). The following primers were used for 18S: forward, 5′-[…]-3′ (SEQ ID NO:11) and reverse, 5′-[…]-3′ (SEQ ID NO:12).

NgBR protein = NgBR protein level after siRNA transfection of HUVEC; type: cell-based, human; settings: 72 hours after transfection
Method: Single NgBR cDNA clones were isolated by sib selection and sequenced. A NgBR-HA was created in pIRESneo vector (BD, Palo Alto, Calif.), with the HA tag at the carboxy terminus. To access the physical interaction of NgBR with Am-Nogo-B, 50 μg of solubilized extracts of CHO cells expressing control vector (pIRESneo) or NgBR-HA was incubated with 25 μg of purified Am-Nogo-B or buffer for 2 hours at room temperature. The HA-tagged NgBR was immunoisolated with anti-HA immunobeads (Roche, Indianapolis, Ind.) and associated proteins analyzed by Western blotting. For the Western blots, expression of NgBR-HA was detected by using anti-HA (Roche) and NgBR (Imgenex), respectively, and beta-actin (Sigma) or Hsp90 (BD Biosciences-Pharmingen) was used to control for loading.
as §1

HUVEC [1] = assay: AP-Am-Nogo-B binding to HUVEC after siRNA transfection; type: cell-based, human; settings: 72 hours after siRNA transfection
Method: (§2) To detect AP-Am-Nogo-B binding, cultures were washed with Hanks' balanced salt solution (HBSS) containing 20 mM HEPES, pH 7.5, and 1 mg/mL BSA (HBH). The plates were then incubated with AP-Am-Nogo-B in DMEM containing 20 mM Hepes, pH 7.5, and 1 mg/mL BSA for 2 hours at 4° C. The bound AP-Am-Nogo-B was detected by using the Blue Substrate kit (Vector Laboratories). The blue staining was examined by using the ODYSSEY Infrared Imaging System (Li-Cor, Lincoln, Nebr.) and confirmed by microscopy. Alternatively, the bound AP-Am-Nogo-B was extracted with Triton X-100, and AP activity was colorimetrically quantified by using p-nitrophenyl phosphate (Sigma) as substrate after heat inactivation of endogenous AP. Non-specific binding was determined by measuring binding in the presence of a 100-fold molar excess of recombinant Am-Nogo-B lacking the AP fusion protein. Specific binding was determined by subtracting the non-specific binding from total binding. For determination of apparent Kd, the binding of AP-Am-Nogo-B was measured in triplicate as described above and the Kd value was quantified by using the Scatchard plot program of GraphPad PRISM (one-site binding, linear regression) using the ratio of bound ligand to free ligand as the y axis and bound ligand (pM) as the x axis.
as §1

HUVEC [2] = assay: Am-Nogo-B-mediated chemotaxis of HUVEC after siRNA transfection; type: cell-based, human; settings: 72 hours after siRNA transfection
Method: (§3) Cell migration was examined in modified Boyden chambers using 10 nM each of purified recombinant AP, AP fusion of Nogo-66 (AP-Nogo-66) or Am-Nogo-B. The transwell inserts (Costar transwell inserts; Corning) were coated with a solution of 0.1% gelatin (Sigma) in PBS at 4° C. overnight and then air-dried. VEGF at 50 ng/mL (1.1 nM) or recombinant Am-Nogo-B at various concentrations dissolved in medium 199 containing 0.1% BSA was added in the bottom chamber of the Boyden apparatus. HUVEC (200,000 cells) suspended in a 100 μL aliquot of medium 199 containing 0.1% BSA was added to the upper chamber. After 5 hours incubation, cells on both sides of the membrane were fixed and stained with a Diff-Quik staining kit (Baxter Healthcare, Miami, Fla.). The average number of cells from five randomly chosen high-power (×400) fields on the lower side of the membrane was counted.
as §1

full-length NgBR = target: T1, full-length NgBR (Homo sapiens, UniProt Q96E22); assay: AP-Am-Nogo-B binding after S2 siRNA in cells expressing the full-length NgBR; type: cell-based
T1 construct: expressed in transfected cells
T1 sequence (Q96E22 1-293): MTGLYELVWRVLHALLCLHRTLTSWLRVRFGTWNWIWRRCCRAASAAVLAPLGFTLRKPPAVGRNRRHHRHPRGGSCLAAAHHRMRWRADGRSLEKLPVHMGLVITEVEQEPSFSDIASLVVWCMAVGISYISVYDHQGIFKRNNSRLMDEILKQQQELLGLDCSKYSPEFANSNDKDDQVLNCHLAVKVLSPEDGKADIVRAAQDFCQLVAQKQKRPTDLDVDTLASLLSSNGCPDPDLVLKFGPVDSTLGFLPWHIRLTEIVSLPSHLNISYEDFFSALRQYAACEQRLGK
Method: as §2
NgBR siRNA oligonucleotides (SEQ ID NOS:2-5) with 3′ dTdT overhangs were synthesized by Qiagen. […]

HUVEC [3] = assay: Tube formation of HUVEC in 3-D collagen cultures (total network length); type: cell-based, human; settings: Am-Nogo-B 80 nM, HUVEC treated with siRNA
Method: HUVEC were resuspended (final concentration of 1×10^6) in a mixture containing rat tail type I collagen (1.5 mg/mL) 1/10 volume of 10×M199 and 1 M Hepes, neutralized with NaOH. Droplets (0.1 mL each) of the cell/collagen mixture were placed in cell culture dishes and allowed to polymerize for 15 minutes at 37° C. Growth medium containing either vehicle or agonist was then added to each well. HUVEC were allowed to form tube-like structures for 1-2 days. To evaluate tube formation in 3-D cultures, cells were photographed using the program OPENLAB (Improvision) and total-network length, defined as an elongation of cell into tube-like structures typically seen in 3-D cultures, was quantified in five fields for each replicate per experiment by using the measurement tools provided with OPENLAB.

HUVEC [4] = assay: HUVEC migration in modified Boyden chambers; type: cell-based, human; settings: 10 nM purified recombinant protein, 5 hours
Method: The migratory response of human umbilical vein endothelial cells (HUVEC) in response to a gradient of recombinant, purified alkaline phosphatase (AP) fusion protein expressing Am-Nogo-B or a recombinant purified Am-Nogo-B was examined. HUVEC were cultured in M199 with 20% FBS and endothelial cell growth supplement (ECGS).
as §3

HUVEC [5] = assay: Binding of AP fusion proteins to the surface of HUVEC; design: species or system human; settings: HUVEC (FIGS. 12, 15)
Method: as §2

Nogo receptor = target: T2, Nogo receptor (Homo sapiens, UniProt Q9BZR6); assay: AP fusion protein binding to COS cells transfected with cDNA encoding the Nogo receptor; settings: COS cells (FIG. 6)
T2 construct: expressed in transfected cells; host or cells: COS-7
T2 sequence (Q9BZR6 27-447): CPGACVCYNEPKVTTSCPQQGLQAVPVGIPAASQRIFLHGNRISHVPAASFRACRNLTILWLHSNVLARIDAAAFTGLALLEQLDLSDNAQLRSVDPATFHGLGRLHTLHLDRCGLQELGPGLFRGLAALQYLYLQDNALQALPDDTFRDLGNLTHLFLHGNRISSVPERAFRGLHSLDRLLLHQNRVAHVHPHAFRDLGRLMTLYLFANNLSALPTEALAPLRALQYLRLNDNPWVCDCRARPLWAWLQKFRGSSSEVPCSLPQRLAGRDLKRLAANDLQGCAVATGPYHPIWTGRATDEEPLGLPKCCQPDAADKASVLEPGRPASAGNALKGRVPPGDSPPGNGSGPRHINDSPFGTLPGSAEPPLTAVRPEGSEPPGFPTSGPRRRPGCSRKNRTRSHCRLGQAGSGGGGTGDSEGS
Method: as §2
(§4) For expression cloning of Am-Nogo-B receptor, pools of 5,000 arrayed clones from a human heart cDNA library (OriGene Technologies, Rockville, Md.) were transfected into COS-7 cells, and AP-Am-Nogo-B binding was assessed by using AP versus AP-Am-Nogo-B binding and detection of the AP product by near-infrared cell imaging (Li-Cor, Lincoln, Nebr.) or AP activity assays.

CHO cells = assay: AP fusion protein binding to untransfected CHO cells
Method: as §2

NgBR [6] = target: T3, NgBR (Homo sapiens, UniProt Q96E22); assay: AP fusion protein binding to CHO cells expressing NgBR; design: an isolated cDNA encoding NgBR is 2,636 base pairs encoding an open reading frame of 293 amino acids; expressed in transfected cells; settings: for surface binding of AP fusion domains to NgBR-expressing cells: CHO cells expressing NgBR (FIGS. 11, 14); for binding to CHO cells stably expressing NgBR: increasing concentrations, 2 hours at 4° C.
T3 sequence (Q96E22 1-293): T1 sequence (Q96E22 1-293)
Method: as §2
A recombinant AP-Am-Nogo-B fusion protein was used to screen a cDNA expression library from human heart (500,000 independent clones) transfected into COS or CHO cells using Lipofectamine 2000 (Invitrogen). COS-7 cells were cultured in high-glucose DMEM with 10% FBS. CHO cells were cultured in MEM-α with 5% FBS.

NgBR [7] = target: T3, NgBR; assay: AP fusion protein binding to COS cells transfected with the isolated NgBR cDNA; design: an isolated cDNA encoding NgBR is 2,636 base pairs encoding an open reading frame of 293 amino acids; expressed in transfected cells; host or cells: COS-7 (A4); settings: COS cells (FIG. 6)
Method: as §2, §4
Single NgBR cDNA clones were isolated by sib selection and sequenced. […] The HA-tagged NgBR was immunoisolated with anti-HA immunobeads (Roche, Indianapolis, Ind.) and associated proteins analyzed by Western blotting. For the Western blots, expression of NgBR-HA was detected by using anti-HA (Roche) and NgBR (Imgenex), respectively, and beta-actin (Sigma) or Hsp90 (BD Biosciences-Pharmingen) was used to control for loading.

Molecule	level of NgBR mRNA (NgBR mRNA)	NgBR protein level (NgBR protein)	binding of AP-Am-Nogo-B to HUVEC (HUVEC [1])	Am-Nogo-B-mediated chemotaxis of HUVEC (HUVEC [2])	binding of AP-Am-Nogo-B in cells expressing the full-length NgBR (full-length NgBR)	Am-Nogo-B-stimulated increase in tube formation after siRNA (HUVEC [3])	HUVEC migration (HUVEC [4])	surface binding of AP fusion domains to HUVEC (HUVEC [5])	binding to COS cells transfected with Nogo receptor cDNA (Nogo receptor)	binding to CHO cells (CHO cells)	surface binding of AP fusion domains to NgBR-expressing cells (NgBR [6])	binding to CHO cells stably expressing NgBR (NgBR [6])	binding to COS cells transfected with the isolated NgBR cDNA (NgBR [7])
S1: siRNA targeting the coding region of NgBR mRNA; forward CCAGAAUUUGCAAAUAGUA, reverse UACUAUUUGCAAAUUCUGG (SEQ ID NO: 2, 3) (3' dTdT, sugars by position and backbone not given here)	downregulates	down-regulates	reduces	–	–	–	–	–	–	–	–	–	–
S2: siRNA targeting the 3' untranslated region of NgBR; forward GGAAAUACAUAGACCUACA, reverse UGUAGGUCUAUGUAUUUCC (SEQ ID NO: 4, 5) (3' dTdT, sugars by position and backbone not given here)	reduced	reduced	reduced	abolished	reduced	attenuated	–	–	–	–	–	–	–
B1	–	–	–	–	–	–	does not promote	did not bind	do not bind	minimal binding	did not bind	not	not
B2	–	–	–	–	–	–	–	did	do not bind	minimal binding	did	permits the binding; also recorded: permitted binding	–

— patent US8084228B2, “Nogo-B receptor antagonists” (Yale University, priority 2006, dated 2011)
